# Test results from publication PMC10135725, “Vutiglabridin Modulates Paraoxonase 1 and Ameliorates Diet-Induced Obesity in Hyperlipidemic Mice” (Biomolecules, 2023).
# B1: Recombinant PON1 (rePON1), carboxy-terminal hexahistidine tag (Homo sapiens) (protein)
# chain: AKLIALTLLGMGLALFRNHQSSYQTRLNALREVQPVELPNCNLVKGIETGSEDLEILPNGLAFISSGLKYPGIKSFNPNSPGKILLMDLNEEDPTVLELGITGSKFDVSSFNPHGISTFTDEDNAMYLLVVNHPDAKSTVELFKFQEEEKSLLHLKTIRHKLLPNLNDIVAVGPEHFYGTNDHYFLDPYLQSWEMYLGLAWSYVVYYSPSEVRVVAEGFDFANGINISPDGKYVYIAELLAHKIHVYEKHANWTLTPLKSLDFNTLVDNISVDPETGDLWVGCHPNGMKIFFYDSENPPASEVLRIQNILTEEPKVTQVYAENGTVLQGSTVASVYKGKLLIGTVFHKALYCEL
# notes: purified, C-terminal hexahistidine tag, expressed in CHO-K1 cells
# Substrate: CCCCSC1CCC(=O)O1
# Test: purified protein
# Assay type: biochemical, Homo sapiens
# Conditions: 50 mM Tris-HCl pH 8, 1 mM CaCl2, RT, no OX-LA, no vutiglabridin
protein,measurement,value
B1,Km,155.78 µM
same,Vmax,92.3 µM/min
